Assay results from paper PMC5870375.

Molecular target: oligomeric amyloid-β 1–42 (UniProt P05067)
Assay: ELISA; solid phase binding assay: 96-well plate coated with 100 nM oAβ1-42 in PBS overnight at 4 °C, blocked with 4% BSA; purified Fc or sTREM2-Fc proteins in PBST with 0.5% BSA, 30 min at 37 °C; detected with biotinylated anti-Fc antibody, avidin-HRP, TMB, read at 620 nm

Q: How did the Kd turn out when “soluble TREM2-Fc (human TREM2 extracellular domain, amino acids 1–171, fused to the Fc region of human IgG1) (from UniProt Q9NZC2 19-171) (Fc fusion)” was run?
A: 86.5 nM
